Assay results: patent publication US20250236850
Where a chain is given by its changes, count along the chain named. Names may count otherwise.

Experiments:
[1] = target: T1, AA9A LPMO from Lentinus similis (LsAA9A), secreted by K. phaffii, His6-tagged
T1 chain: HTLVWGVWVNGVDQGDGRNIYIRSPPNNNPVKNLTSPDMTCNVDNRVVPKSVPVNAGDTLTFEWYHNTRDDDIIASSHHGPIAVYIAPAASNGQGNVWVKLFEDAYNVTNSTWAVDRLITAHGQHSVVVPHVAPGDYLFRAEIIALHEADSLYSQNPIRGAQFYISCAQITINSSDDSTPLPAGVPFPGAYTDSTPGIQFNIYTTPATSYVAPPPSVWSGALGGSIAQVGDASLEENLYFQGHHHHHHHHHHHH

[2] = target: T2, AN4702 protein of Aspergillus nidulans (uniprot entry Q5B428), native N-terminally histidine-methylated protein, Q5B428
T2 chain: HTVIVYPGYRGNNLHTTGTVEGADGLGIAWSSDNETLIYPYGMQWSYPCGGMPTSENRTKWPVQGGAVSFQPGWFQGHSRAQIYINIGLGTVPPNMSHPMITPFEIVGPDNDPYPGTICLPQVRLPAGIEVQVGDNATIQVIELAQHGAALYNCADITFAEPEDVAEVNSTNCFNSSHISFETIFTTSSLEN

B1: AN4663 N-terminal histidine methyltransferase (NHMT) from Aspergillus nidulans (protein)
chain: MAPFRSIYEKDATKKLVVGAALLVLAAFYSYVFLLTLAPVYGSTPSHIFHGYGVGIAGVAGWFSKDIVDRVSGRKAIYAIPVLAFFLPVVQYFVSQQSSALGNPAGPIFTEVLALYPLVLLSVACAGKLVQAGLNLQRHGDLVAEHIPLLGSYVIYSAGEHLIKAFLSRFIGSTVLLSRAGLQILIAIFYAAAVPSKALLLAIPAFLFSVTSNTHLPLGHTTTALNNIIADDGFALVARQDSTTGYISVLDNLEDGFRVMRCDHSLLGGQWIKKRPNYTPPAVKDPIYAVFTMLEAVRLVETAHGIPRADAGSNALVIGLGIGTTPGALISHGIDTTIVEIDPVVHKYALQYFDLPENHTPIIEDARAFVQRSRNAPQPKQYDYIVHDVFTGGAEPVELFTYEFISGLHALLKDDGVIAINYAGDISLYSTALSIRTIKSIFPTCRLFREAAAPEIGPDFTNMVIFCTKSRGAPITFRDPVPEDFLGSRFRSRYLVPKHEVDAAQFDNVGLEDGPQGHGRRVLVDKEVGRLHKYQDRSALEHWGIMRTVLPDRVWEGW
Question: B1 was tested. Which “methylation stoichiometry of the N-terminal peptide of secreted LsAA9A (targeted MS), Amy signal peptide construct, co-expression in K. phaffii” value [1] did it give?
Answer: The value was “a methylation stoichiometry on average of 65% of the peptides for the Amy signal peptide”.

Question: What about the “methylation stoichiometry of the N-terminal peptide of secreted LsAA9A (targeted MS), native signal peptide construct, co-expression in K. phaffii” value [1] of the same protein?
Answer: Its value is 29% for the native signal peptide.

Question: What about the “PRM assay of N-terminal histidine methylation of the AN4702 peptide in A. nidulans knockout strains” value [2] of the same protein?
Answer: The value was “the knockout of the gene [SEQ ID NO.: 1] encoding AN4663 (uniprot entry Q5B467) [SEQ ID NO.: 2] abolished the N-terminal histidine methylation on the monitored peptides and conversely, the unmethylated form was observed”.

B2: C-terminally mRFP-tagged AN4663 (strain NID2794) (protein)
chain: B1 chain
Question: Which “PRM assay of N-terminal histidine methylation in A. nidulans (strain NID2794)” value [2] does the source give for B2 here?
Answer: The value was “the C-terminal mRFP tagged version was unable to methylate the LPMOs”.

B3: AN4663 with E340A substitution (strain NID2787) (protein)
chain: B1 chain with E340A
Question: For B3, which “PRM assay of N-terminal histidine methylation in A. nidulans (strain NID2787)” value [2] is on record?
Answer: Its value is “Site-directed mutagenesis of this glutamate to an alanine (E340A) lead to a loss of N-terminal histidine methylation generating a similar methylation phenotype to a complete knockout of AN4663”.

B4: N-terminally mRFP-tagged AN4663 (strain NID2789) (protein)
chain: B1 chain
Question: Which “PRM assay of N-terminal histidine methylation in A. nidulans (strain NID2789)” value [2] does the source give for B4 here?
Answer: Its value is “methylation of LPMOs was stoichiometric for the N-terminally tagged version”.

B5: Truncated variant of AN4663 lacking the transmembrane region (positions 1-224) (protein)
chain: LNNIIADDGFALVARQDSTTGYISVLDNLEDGFRVMRCDHSLLGGQWIKKRPNYTPPAVKDPIYAVFTMLEAVRLVETAHGIPRADAGSNALVIGLGIGTTPGALISHGIDTTIVEIDPVVHKYALQYFDLPENHTPIIEDARAFVQRSRNAPQPKQYDYIVHDVFTGGAEPVELFTYEFISGLHALLKDDGVIAINYAGDISLYSTALSIRTIKSIFPTCRLFREAAAPEIGPDFTNMVIFCTKSRGAPITFRDPVPEDFLGSRFRSRYLVPKHEVDAAQFDNVGLEDGPQGHGRRVLVDKEVGRLHKYQDRSALEHWGIMRTVLPDRVWEGW
Question: For B5, which “PRM quantification of methylated and unmethylated N-terminal peptide after truncation of AN4663” value [2] is on record?
Answer: Its value is “the expression of this variant abolished the N-terminal histidine methylation capacity of the enzyme”.
